Measurements as given in the supplement of paper PMC9732359.
± gives the uncertainty stated by the source.

Experiment: protein stability index of a GFP-peptide fusion (yeast GPS) (PSI 1-4); higher = more stable; sorted into four equal gates, so the index is relative within each strain
Outline: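 For each peptide, the protein stability index sums the read frequency in every gate after multiplying it by the gate number. Read frequencies came from plasmids that were PCR-amplified from each gate and Illumina-sequenced, with reads assigned to strains by barcodes. The gates were four equal bins of GFP/Cherry fluorescence ratio applied to mid-log yeast in leucine-free medium carrying a pooled library of tiled 17-residue yeast protein peptides fused downstream of GFP on a Cherry-expressing plasmid.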

Row | Sequence | protein stability index (doa10∆) | protein stability index (pdr5∆) | protein stability index (san1∆) | protein stability index (ubr1∆)
1 | LGLCCLLDVKLAIDNMY [YCG1] | 1.52 ± 0.045 | 1.51 ± 0.04 | 1.78 ± 0.067 | 1.88 ± 0.044
2 | MIVYYKDAISFIKEIHK [YCS4] | 2.19 ± 0.092 | 1.84 ± 0.069 | 2.57 ± 0.11 | 2.26 ± 0.072
3 | IEQSITKNIPITHRDLH [SSN8] | 2.37 ± 0.047 | 2.92 ± 0.041 | 2.53 ± 0.046 | 2.78 ± 0.036
4 | NFETEWNLQTLAADDAF [RPB11] | 2.68 ± 0.16 | 2.83 ± 0.13 |  | 2.54 ± 0.13
5 | LILRDFLNNGEVDSASD [RPN3] | 3.07 ± 0.19 | 2.89 ± 0.17 | 2.63 ± 0.23 | 3.2 ± 0.29
6 | PIPSKPTLFDLAFNYIT [SRP68] | 1.64 ± 0.051 | 1.54 ± 0.046 | 1.74 ± 0.071 | 2.02 ± 0.046
7 | TEISGLKNVNKRAFENF [SMC3] | 3.28 ± 0.079 | 3.09 ± 0.097 | 2.7 ± 0.096 | 2.96 ± 0.057
8 | YKEQIIQGFYWAVKEGP [SNU114] | 2.75 ± 0.088 | 2.38 ± 0.064 | 2.23 ± 0.09 | 2.38 ± 0.08
9 | LHKRQQFSESTHNDIDS [YJL039C/NUP192] | 2.9 ± 0.081 | 3.03 ± 0.091 | 2.78 ± 0.051 | 3.03 ± 0.05
10 | NHLDELQKKFVTKQSEL [SMC1] | 2.59 ± 0.11 | 3.06 ± 0.14 | 2.35 ± 0.21 | 2.72 ± 0.075
11 | LYGPPGTGKTMLVKAVA [RPT3] |  | 1.17 ± 0.11 | 1.15 ± 0.21 | 1.37 ± 0.14
12 | AFVSVYSKNNPNLLFSM [PRP8] | 1.93 ± 0.063 | 2.74 ± 0.058 | 2.61 ± 0.064 | 2.71 ± 0.038
13 | PSFTDEQWITIESQMRD [PRP8] | 2.44 ± 0.067 | 2.66 ± 0.064 | 2.8 ± 0.069 | 2.6 ± 0.053
14 | NRANVSKDELREKLAEV [RPS24A] | 3.53 ± 0.089 | 3.24 ± 0.11 | 3.37 ± 0.072 | 3.28 ± 0.088
15 | LTVENKLQFETDRLSTT [SMC1] | 3.24 ± 0.077 | 3.05 ± 0.05 | 2.84 ± 0.047 | 2.94 ± 0.044
16 | ITGNKIMRILKSNGLAP [RPS13] | 3.01 ± 0.14 | 3.32 ± 0.18 | 2.53 ± 0.16 | 2.91 ± 0.057
17 | HGINLQNKKNLKWVAVV [SSN2] | 2.98 ± 0.066 | 3.11 ± 0.051 | 3.05 ± 0.057 | 3.23 ± 0.057
18 | PTPSVKTEPVGTGLQSY [RPC53] | 3.4 ± 0.25 | 3.23 ± 0.13 | 3.16 ± 0.1 | 3.25 ± 0.11
19 | DNSFNELTDNMSDFVPI [MCD1] | 2.95 ± 0.082 | 3 ± 0.089 | 2.92 ± 0.052 | 3.23 ± 0.064
20 | SDDIISQVDPITLFVLV [FAS2] | 1.19 ± 0.045 | 1.38 ± 0.068 | 1.33 ± 0.17 | 1.23 ± 0.064
21 | IAEGKSKQDASPKPYAV [RPL8B] | 3.02 ± 0.077 | 3.38 ± 0.063 | 3.12 ± 0.06 | 3.23 ± 0.049
22 | LVSRGGCGNTQPTIRKD [RPO21] | 2.96 ± 0.07 | 2.74 ± 0.11 | 2.83 ± 0.043 | 2.9 ± 0.043
23 | ISDIPYVISLSYTDAQD [YMR129W/POM152] | 2.16 ± 0.066 | 2.41 ± 0.068 | 2.5 ± 0.061 | 2.64 ± 0.06
24 | HSLSQAIKWDGSSGGVI [PRE3] | 3.69 ± 0.28 | 3.27 ± 0.21 | 2.67 ± 0.21 | 
25 | PLDEIPVDVDFNLDLDD [REC8] | 2.7 ± 0.1 | 2.43 ± 0.066 | 2.24 ± 0.088 | 2.25 ± 0.066

Row | Sequence | protein stability index (doa10∆) | protein stability index (pdr5∆) | protein stability index (san1∆) | protein stability index (ubr1∆)
26 | LLATKQHDSSANEDEEE [CSN12] | 2.85 ± 0.12 | 3.05 ± 0.089 | 2.72 ± 0.086 | 2.87 ± 0.1
27 | AGILRGYDIFLNVVLDD [SMX2] | 3.14 ± 0.055 | 2.38 ± 0.06 | 2.51 ± 0.084 | 2.75 ± 0.051
28 | FPRTRFEAQIDSVEFIF [RPN10] | 2.61 ± 0.11 | 2.88 ± 0.066 | 2.62 ± 0.11 | 2.81 ± 0.068
29 | LQEIYQTDAIKSDEAKW [RPN5] | 2.34 ± 0.09 | 2.5 ± 0.13 | 2.13 ± 0.13 | 2.16 ± 0.17
30 | TGAGVSTSLGIPDFRSS [SIR2] | 2.19 ± 0.079 | 2.51 ± 0.082 | 2.1 ± 0.19 | 2.86 ± 0.078
31 | IYRDRSTFTKHLIKCFF [ITC1] | 2.11 ± 0.043 | 1.68 ± 0.038 | 2.21 ± 0.046 | 2.26 ± 0.031
32 | QRLIFAGKQLEDGRTLS [RPS31] | 2.8 ± 0.12 | 2.97 ± 0.078 | 3.38 ± 0.067 | 2.27 ± 0.12
33 | PSKKRRRDFGAPANKRP [SMD1] | 2.57 ± 0.19 | 3.02 ± 0.1 | 3.16 ± 0.12 | 3.04 ± 0.09
34 | FQVSNVISLGPNLATFI [YJL039C/NUP192] | 1.76 ± 0.14 | 1.99 ± 0.11 |  | 2.17 ± 0.054
35 | QNFAEEDDSSNSCFSDG [REC8] | 2.56 ± 0.15 | 2.59 ± 0.1 | 2.58 ± 0.12 | 3.33 ± 0.12
36 | LFAGYTDNVIRVWQVMT [ASC1] | 1.61 ± 0.064 | 2.07 ± 0.057 | 1.86 ± 0.099 | 2.06 ± 0.066
37 | LDYQETYVEELFPIVKK [YJL039C/NUP192] | 2.81 ± 0.071 | 3.07 ± 0.1 | 2.87 ± 0.1 | 2.75 ± 0.062
38 | QKYNLLHVLPTLNSRAL [SNM1] | 1.45 ± 0.084 | 1.74 ± 0.078 | 1.27 ± 0.18 | 1.56 ± 0.11
39 | FTIDAKPPISDSVFSFG [YLR335W/NUP2] | 3.13 ± 0.054 | 2.75 ± 0.047 | 2.73 ± 0.051 | 2.69 ± 0.042
40 | MKLVNFLKKLRNEQVTI [SMD1] | 1.87 ± 0.17 | 1.93 ± 0.095 | 2.04 ± 0.14 | 2.5 ± 0.11
41 | YKVMHQIRACKDLKHII [PRP8] | 2.27 ± 0.041 | 2.41 ± 0.046 | 2.21 ± 0.052 | 2.19 ± 0.05
42 | FILADAGLEITSDNLLT [RPP1B] | 2.55 ± 0.052 | 2.77 ± 0.054 | 2.65 ± 0.076 | 2.73 ± 0.049
43 | LDVTKEAQANLLTAKHG [RPO21] | 3.23 ± 0.17 | 3.46 ± 0.18 | 2.8 ± 0.19 | 3.18 ± 0.19
44 | EDGTIESYNQNDWKLET [SIN4] | 3.29 ± 0.22 | 3.02 ± 0.2 | 3.22 ± 0.12 | 2.98 ± 0.11
45 | LSQPVSASKHEYSDNFP [SIR4] | 2.24 ± 0.084 | 2.34 ± 0.046 | 2.82 ± 0.071 | 2.89 ± 0.046
46 | TQTGQNTGPSTGGLFGA [YGL172W/NUP49] | 3.47 ± 0.11 | 3.34 ± 0.094 | 2.93 ± 0.14 | 3.52 ± 0.13
47 | RYWVQKERSDGKRHIFD [CDC53] | 2.49 ± 0.2 | 2.98 ± 0.26 | 3.46 ± 0.13 | 2.91 ± 0.14
48 | NFPEASKLSEHLNHYIL [YCG1] | 2.53 ± 0.29 | 2.51 ± 0.11 | 2.66 ± 0.17 | 2.53 ± 0.09
49 | FNLISNAGTEKEKESKK [YLR335W/NUP2] | 3.41 ± 0.077 | 3.35 ± 0.063 | 3.44 ± 0.044 | 3.45 ± 0.068
50 | ILKRDFELVSDLSYIEF [ECM29] | 2.54 ± 0.079 | 2.67 ± 0.078 | 2.58 ± 0.072 | 2.76 ± 0.054
